The chains are these.
B1: Taf4, subunit of Komagataella phaffii TFIID (natural protein, UniProt F2QWX2 1-411, looked up)
chain: MSSTPDGSTPVDSGKRTSDQIDVGEYKRVKVERGNRSETVDSGLIDMSNSVGASLDIPTPDQLNPTNTGVQTPSLHQPGESISAHSLSLPGETSVGGSTGISRENTPQVRPDVSVSQSSSQLHQRNESFPGLSVSKSTTSLNKDTMFDNRKRLLGNNGANPNGQKSSDPEKLSDALTAAGVDLKEEESLLSQSTVIQQSRRQLSTLSSFLHPVHLATFMRRVMENNGLRNYVDHDTELLSYMSSACEGFMAGILTDSVILANHRKRPIKSKLKHSTTPRSDVSKVLRDIATKQKEREEQRVQKRVTLDIEGQEDDGKSKQDNEEVLHRAANATAMMMTSKSKKKKYSWMNADSGAQGGKTNSVLARGDSGIRYRDAREEPGLVLRDLLGALEGRRMCVANTVVKGYARMND
notes: Taf4, TFIID subunit of the yeast Komagataella phaffii (formerly Pichia pastoris); histone-fold domain modelled in the cryo-EM map; source: endogenous, K. phaffii nuclear extract; co-purified in TFIID by SBP-tagged Taf2 (streptavidin beads, sucrose gradient)
B2: Taf12, subunit of Komagataella phaffii TFIID (natural protein, UniProt F2QSK7 1-609, looked up)
chain: MNQPPNQPQDNDSQVSSSGMQGGNSMNYSSSAPVNGAGQGPQPQQNSQGQNGKKPVGMQQAQIQLLARRYQLEMQKAHQLGPQTPQGAEHLQTATKIKHVLLSYQQQRQRQQGQVQGQGLSQPQGQNQAQGRVQQQTQGLSPDPGSHQGSPQFQQPHQVMMGSAQTAGTSIANPQAQSNISSQVSQMAAAKVNSASPPIPPKTVGTPTGTPVGTQPRGQVTIQQFQQVKSILEEFEKKLRTIEAAKRDQNLPEETLQKLLRQEAILKQRYAQTKATAYQMSQHLQRQQQALRAASAESAEVYVTGSASSPNMNVYNQQILTQQPQQQLQQQQLHQPQPQQPQPARQSPHLLIHQQQQQQQQQQQQQQQQQQHPVTHRPSNVSQTMPQPSQPLQSSTPSSAVGRNQSPGATPVTSVNAAAKPSPGTSSTSTLINQHILKPAPPPTEIPARLQVKPPQPAAMKIPNRPTLLGGSAISQPSLTTPVSIRPPPLEMEGDHVLQKRKLKELLRNVGADEGDGETVIDGDVEELLLDLADEFVTSVTSFACRLAKHRKVDNIDMRDVQLHLERNWNIRVPGYASDEIRSVRKFQPTAGYNQKVQGVAISKSVNKN
notes: Taf12, TFIID subunit of the yeast Komagataella phaffii (formerly Pichia pastoris); histone-fold domain modelled in the cryo-EM map; source: endogenous, K. phaffii nuclear extract; co-purified in TFIID by SBP-tagged Taf2 (streptavidin beads, sucrose gradient)
B3: Taf8, subunit of Komagataella phaffii TFIID (natural protein, UniProt F2QT15 1-517, looked up)
chain: MADKSDDNQSLVSVSSASSGKENPNSVGQRSMNPTLSHEEQHDQEVQERYNTGKDLNITSQPECVPAMEVALKASVLLILSSLGVQASSLSIDHLTYITTKYIDRLVSELHRSTEIQRRRTIAKRDVQLVVDRGILDLEDVTLEYERLKLTRKRVKPSIEKLSKYASELKESASSVQVSENDKDAFFFFDIAEKISEFMPLRMKRKNYIPKWMPVLPPEHTYVATPQFTEVISDPKELREQLTAESRLGEKALQHLIGTKIVEDKKEDVGNENDNDIDKEIHHGEIDVESDHNLEKGPNGETNGVQSQPPKSMVSSKRFDIVAHAKHRLSVLEKRKRHQEQLLENRRKEIDGLVGQYLGYYATKKIEPPVSDIIVNIMNTEYYHVSREISKSEHRKQKIQESQQLKRRKLEDELQQELEHQTEDIDFEFNFDEDDVDMNKNLNENLNENENDDEQVLIEEDTSFDITNGDIEKTNQETPFTNGSSKQWDSNNAILDSTNSEPEPEPPIADLFNVDSS
notes: Taf8, TFIID subunit of the yeast Komagataella phaffii (formerly Pichia pastoris); putative helices placed in the cryo-EM map; also called KpTaf8; source: endogenous, K. phaffii nuclear extract; co-purified in TFIID by SBP-tagged Taf2 (streptavidin beads, sucrose gradient)
B4: Taf6, subunit of Komagataella phaffii TFIID (natural protein, UniProt F2QMA7 1-485, looked up)
chain: MSKNSQRSSIPTSHTLWSPSDTVKDAAESLGIFNLNEEAAKNLAMDIEYRIHEILDQASKFMRHGKRRTLHTSDIDRALKVLNLEPLYGYDVSRPLVFKEALVGAGQNLYYVDDDEVDFEKLINEPLPKVPRFSTFTAHWLAIEGVQPAIPQNPSPNDIKNILPINRGSMENMFSLINDEVKEDTNEEFTSTGPSVSSNISNQKQGLEVKPLVKHVLSRELQLYFDKIVEVLLNQEETKEAELLRNSALQSVRADPGLHQLVPYFIQFISETITKNLKNISLLSTMLELIYSLLMNESLFLEPYVHAIIPCILTLLLAKKIGNVDDELQKQQQLALRELSASLLERVIEDFGSSYSTLKPRITRTLLRAFVSVNNTTPGTQYGALLGLRGLGSEVIRIVVLGNVINWSSTFLEKLQQEDQVFLIDTLIETLRVLTKEGKLVKDMKTENGIDNERLKQRVGDLIADRIQACDDAQDIYWGIFFGEV
notes: Taf6, TFIID subunit of the yeast Komagataella phaffii (formerly Pichia pastoris); HEAT repeats (residues 213–486) and histone-fold domain modelled in the cryo-EM map; two copies in holo-TFIID; source: endogenous, K. phaffii nuclear extract; co-purified in TFIID by SBP-tagged Taf2 (streptavidin beads, sucrose gradient)
B5: Taf5, subunit of Komagataella phaffii TFIID (natural protein, UniProt F2QWD3 1-722, looked up)
chain: MKQEPGDSSDKSAPSGSITPQPKPPQQANVSNQQPQKPQQFSAADLNRIVLEYLNKKGYHKTESMLRMESSHIPAPPTNIPTPQTTNISRPTAPGRAPEYSDDPATIKRGYSILKSWCESSLDFYRPELEKFLYPVFVHCYLDLIARGYPSHAREFYDKFSKDHSVLHEYEISKLGGISLKEHLQENDVAKIFRSHKFKVLIGRTTFNLLLYFLNENDAVGGGVVLRLINQYIEPVITTEAIAVEREGELNLSEGIVELHTLNNTSIGGEQREISSVDAFNKKPVKLGKLQVDPEYSKELEAELKLKDEHEQAAQKKVSTTLLEEYRENFKVDPSDENNPSKDTLPLPLKSAQDLRNDIAMIQDSRAKIKLSAAQASLPSVCMYTFHNTNNDLTCLKFNDDSTMVASGFQDSFIKLWSIDGSPLRSLLKNDPYNQQNNDGVAVKGSRRLVGHSGAVYGVDFSPDNRYLISCSEDKTVRLWSLDTYTCLVSYKGHSSSVWDVKFSPMGHYFATASHDQTARLWSCDHIYPLRIFAGHLNDVDCVEFHPNSTYLFTGSSDKTARMWDIARGECVRVFMGHSGAINCLAVSPDGRWLASAGEDSVVCLWDISTGRRIKAMRGHGRSSIYSLAFSREGTVLVSTGADNSVRVWDVKKNTNSPSAQPEPINDVTAQGIQKKTEDLRRRKEIVATNDHMSVYFTKKTPVYTVHFTRRNLCLAGGVFGG
notes: Taf5, TFIID subunit of the yeast Komagataella phaffii (formerly Pichia pastoris); WD40 repeat and NTD (residues 99–243) modelled in the cryo-EM map; two copies in holo-TFIID; source: endogenous, K. phaffii nuclear extract; co-purified in TFIID by SBP-tagged Taf2 (streptavidin beads, sucrose gradient)
B6: Taf1 (TBP-associated factor 1), subunit of Komagataella phaffii TFIID (natural protein, UniProt F2QMX2 1-1010, looked up)
chain: MDVDFDNALNGQVGGFDQFFDGTTKHADNAIDFSDEEELADEEVGDAPQRRTDVDDEHKPPEGTYEMNLSGSEKEDLLFKNLEREASEGTELPLPTIGGLKVPNFDNNIGLNETISERNECNQISNSHFVKHLEKTMIRTQMLKYYYPSFQKSKPISFSSLFPPPLASFQLYDGRDCTPLLPLKALQEVDPDEKKIFKSSFSAHQSKGDKRSQSVKHIELMELESNNTQIPPRKQKETLKHLDRNIVLSTLSWDDTELLSDKLEERHNRNRTKPNFQQMQYDDWDVDTDMILEGTLDTSRLNLKLDMNDPHLLFLNQKHKPSPAGKMNARFPMNSKSFEMKFNISNDMQYQMLKDNYQSKIRSTIGNLSIDHSIPATILQTPFYKVKLSKQELRRFHRPVFNSRPNSTILFSKIKTRKKKKDRGKETKELFKKSVDLTLGDSASFFLLEYSEEQPVALSNFGMGSKLINYYRKLNDDDNSRPKLPVGETHVLGVQDRSPFWNFGFVEPGNLVPTFYNNMVRAPIFRHEPEETDFLLIRSSGGGISPRYFLRSLDHVFTVGQTFPVVDVPGPHSRKVTSTSKNRLKMIVYRVLNKNERHRLVVKDISIHFPDQNDMQNRQRLKEFMEYQKNGEDHGFWKIKGNEILPGFKEIQQMIQPEDIALLEAMQFGQLNLEDYDSLREETLIGQTTATTEEALQVQMAPWSTTKNFIQATQGKAMLQVHGIGDPSKKGEAISFLRISMKGGFKSSMEDIVEKAEQMDNKKSQGHSYNVAVQQKMYDEEISRVWYAQQRALSKTSDMMERELGPTEAPTASSVYDDQNQITEMAKTLEEFVLSPLQTTVSSVKPASIKEKKHMKITRMVRDQNGILQRRTQLVTDQKVIAAYIQRKQEQEKAEIDAEKISFTNDEEQNRRAKKILEEELERLEKSKERRIARKKLKEGLPVVSSLSNTDSDARLSGKGIGKGKSTSRRCATCGALGHIRTNKACPMYYSAMNKSNPNMSDLPVYDIQY
notes: Taf1, TFIID subunit of the yeast Komagataella phaffii (formerly Pichia pastoris); native subunit of the purified complex; also called KpTaf1; source: endogenous, K. phaffii nuclear extract; co-purified in TFIID by SBP-tagged Taf2 (streptavidin beads, sucrose gradient)

The target of data set [1] is B5. As to the kind of experiment: cross-linking; 50 µg purified TFIID, 3 mM BS3, 2 h at 25 °C; trypsin, SCX fractionation, Orbitrap Fusion MS; pLink and Nexus, 5% FDR. As to conditions: both partners purified.
The target of data set [2] is B2. Described as above. To be noted: both partners purified.
Data set [3] has as its target T1, Taf2 with C-terminal streptavidin-binding peptide tag, subunit of Komagataella phaffii TFIID (Komagataella phaffii, UniProt F2QRH9 1-1571).
T1 construct: Taf2, TFIID subunit of the yeast Komagataella phaffii (formerly Pichia pastoris); residues 36 to 1194 modelled in the cryo-EM map; bait of the purification; also called SBP-tagged Taf2; source: K. phaffii strain with SBP-tagged Taf2, nuclear extract; purified (streptavidin beads, biotin elution, sucrose gradient)
The data set is described as above. To be noted: both partners purified.

Data set [4] concerns the molecule itself. The experiment in a line: cryo-EM structure; purified TFIID (0.4 µM) with two-fold excess of TFIIA and 2.5–3-fold excess of pGAP promoter DNA, cross-linked with 0.1% glutaraldehyde; focused refinement of the lobes (Taf2 lobe 4.5 Å, Twin lobe 4.8 Å); homology models docked.
In data set [5] the target is T1, Taf2 with C-terminal …. As to the kind of experiment: affinity purification with mass spectrometry; TFIID purified from K. phaffii nuclear extract by the SBP tag at the C-terminus of Taf2 (streptavidin beads, 250 mM potassium acetate, elution with 10 mM biotin, 10–30% sucrose gradient); SDS-PAGE and mass spectrometry of the purified complex. To be noted: partners not purified.

Turning to B1, the binding result in data set [1] and in data set [2] was “binds” throughout.

On to B2, for which, in data set [1], the binding result is reported as “binds”.

With B3, the binding result in data set [3] is “binds”.

For the molecule B4, the “stoichiometry N” value in data set [4] amounted to 2.

Turning to B5, in data set [4], the “stoichiometry N” value turned out to be 2.

As to B6, the binding result in data set [5] is “binds”.
